Experimental data from patent publication US20150018409A1, “CHIMERIC POLYPEPTIDES AND THEIR USE” (ADRIACELL S.P.A., priority 2003, published 2015).

How the values were obtained:
[1] = test system: AT-5 cells (ATM negative); details: SCPVUTAT 100 nM or HU 1 mM
Protocol: AT-5 cells, negative for ATM were treated with [sequence]
(§1) P53 phosphorylation on Ser15 in response to [sequence] treatment was assayed in ATM positive or negative cell lines (MRC-5 and AT-5 respectively). For comparison parallel experiments were done with hydroxyurea (HU). […] For this immunoblotting experiments were done with extracts after treatment, by using specific antibodies to a phosphorylated Ser15 in p53 for specific detection.

[2] = test system: U2OS cells; experiment: Histone H2AX Ser139 phosphorylation, single cell fluorescence microscopy; type: cell-based, human; details: 100 nM, 60 minutes
Protocol: U2OS cells were treated with [sequence] (100 nM, central column) for 60 minutes, in addition treatment was done with Wortmanin (50 μM, WM, right column), or with no agent as a control (left column). After treatment cells were stained with specific antibodies to H2AX-Ser-139 phosphorylated (red) or for Histone 2B (served as a control, green) and analysed on a single cell level by fluorescence microscopy.
As another example for a phosphorylation of a substrate of ATM in response to the object of the invention, histone H2AX Ser^139 phosphorylation was analysed. […] U2OS cells were treated for 60 minutes with [sequence], fixed and analysed for histone H2AX Ser^139 phosphorylation. Cells were analysed with a specific antiserum to phospho-Ser 139 on histone H2AX and analysed in the microscope on a single cell basis. As a control histone 2B was analysed.

[3] = test system: neuroblastoma cells G1-LIN; experiment: Apoptosis by FACS analysis of DNA content (below 2N); type: cell-based; details: 30 hours
Protocol: FACS analysis of the DNA content stained with propidium J^− of the neuroblastoma cells G1-LIN after […] treatment (10 nM, panel C; 100 nM panel B). The treatment of the samples was done for 30 hours. As a control samples treated with SC34 were used (100 nM, panel D) or not treated (panel A). At the bottom of each panel the representative percentage of the cell cycle phase distributions obtained are indicated (G1/S/G2-M). (A) indicates apoptotic cells.

[4] = test system: NHEJ mutated cell lines (V3, xrss5, XR-1, HIS P1.13-11); experiment: Colony formation assay of NHEJ mutated cell lines; type: cell-based, rodent
Protocol: Clonogenic assay of CHO cells that were mutated for proteins involved in the NHEJ repair-pathway treated with […]. The cell lines used are AA8 (parental line), V3 (DNA-PCCS^(−/−)), xrss5 (KU80^(−/−)) and XR-1 (XRCC4^(−/−)), HIS P1.13-11 (KU70^(−/−)) and the corresponding parental cell line CHO-K1. Various dilutions of the CHO cells containing the NHEJ mutations as indicated were treated for 24 hours with […] (25 nM, grey bars; 100 nM, black bars) or not treated (white bars); the cells were washed and then grown for 7-10 days, stained with GIEMSA and colonies were counted.
These cell lines were analysed in the nuclease activity assays with […] in vivo and compared to the parental cell lines as indicated. […] Seven to ten days after addition, cell growth was analysed by staining with GIEMSA-blue and quantification of diverse cell-concentrations. […] In analogy, cell growth was quantified after a single treatment with […] for 12 hours (10 nM, grey bars; 75 nM, black bars; not treated, white bars). […] The multiwell-microtiter-plates (for an example see FIG. 13A) were scanned using the VersaDOC® (BioRad) imaging system and growth was automatically quantified with the software package Quantify One® for the analysis of the microtiter-plates (microtiter-plates scanning software).

[5] = test system: HCT116 (p53(+/+)) cells; experiment: Cell cycle arrest point: nuclear morphology and immunofluorescence of cyclin B1 and Cdc25C; type: cell-based, human
Protocol: Microscopic analysis of the HCT116 (p53(+/+)) cells not treated, or treated with […] (100 nM) for 30 hours, or with taxol (0.2 μg/ml). Immunofluorescence analysis was done with primary antibodies specific for cyclin B1 or specific for Cdc25C and coloured with secondary conjugates of FITC (green, cyclinB1) or TRITC (red, Cdc25C).
Moreover, the initiation of mitosis, i.e. induced with the microtuble blocking agents Nocodazol or Taxol, can be detected by the nuclear activity of the Cdc2 kinase and also by nuclear localisation of Cdc25C. These assays allow to dissect the exact point of cell cycle arrest after […] treatment and this further allows to detect disturbations in this phase of the cell cycle relative to a positive control. Similar experiments are well known in the art also for other phases of the cell cycle. The assay shown in FIG. 7A and the immunofluorescence analysis shown in FIG. 14 show examples for these types of experiments.
HCT116 (p53(+/+)) not treated, or treated for 30 hours with […] (100 nM), or with Taxol (0.2 μg/ml) were fixated with 3% PFA and treated with specific antibodies to cyclin B1 or for Cdc25C. The immunofluorescence was analysed with the microscope (see FIG. 14) with specific primary antibodies to cyclin B1 conjugated to FITC labelled secondary antibodies (green) or with specific primary antibodies to Cdc25C conjugated to TRITC labelled secondary antibodies (red).

[6] = test system: p53 positive or negative cells; experiment: Cell cycle response to DSB's by FACS in p53 positive or negative cells; type: cell-based
Protocol: The cell cycle response to DSB's induced by […] treatment were analysed in p53 positive or negative cells. […] Incubation for 36 hours of the cell lines mutated for ATM (AT-5) with […] results in a transient retardation of the cell cycle, as was determined by a DNA content FACS analysis. […] A single addition of […] for 60 minutes to the AT-5 cells was sufficient to induce cell cycle stop after 24 hours (FIG. 8A) and finally leads to cell death, obtained from not correctly ligated DNA, and consequently, the clonogenic activity after a single treatment with […] for 60 minutes was below 0.02% for AT-5 cells. […] In addition, the cells were incubated with adriamycin as a control.

[7] = test system: MRC-5 cells (ATM positive); details: SCPVUTAT 100 nM or HU 1 mM
Protocol: [sequence] dependent Ser^15 phosphorylation of p53. The ATM positive cell-line MRC5 was treated with [sequence] (100 nM, SC) or with hydroxyurea (1 mM, HU) for the time periods as indicated; as a control non treated cells were used (O).
as §1

[8] = test system: U2OS osteosarcoma cells and IMR90 primary fibroblasts; experiment: Protein transduction of the chimeric proteins (immunoblot and immunofluorescence with PvuII antibody); type: cell-based, human
Protocol: For a comparison aliquots of the supernatants of the cell culture taken before extract preparation were included in the analysis (upper panel, SUPERNATANT).
In addition DNA costaining was obtained with propidium J after RNAse A digest (red, upper panel).
The transduction capacity of the chimeric proteins was assayed in U2OS osteosarcoma cells and in the IMR90 primary fibroblasts cells. The cells were grown in DMEM containing 10% FCS and treated with the proteins of the invention in the same medium, in general in the presence of antibiotics. After 10 minutes of incubation of the cells with increasing quantities of the fusion protein […] (1, 10, 50, 100, 200 nM) and with the protein SCPVU (single chain PvuII without TAT) and SC34 as a control (prepared as described for […] except that the enzyme PvuII contains a mutant in position 34) cell extracts were prepared, separated on SDS-PAGE and assayed by immuno-blot analysis with a monospecific antibody to PvuII. Further, uptake was assayed after 30 min of incubation by immuno-fluorescence analysis using PvuII specific antibodies and nuclear costaining with propidium iodide.

[9] = test system: neuroblasoma cell lines (IMR32, LAN5, GI-LIN) and primary neuroblastoma cell isolates; details: upon treatment with SCPVUTAT
Protocol: For the analysis the DNA content was assayed with FACS after staining of the cells with propidium J^−.

B1: SCPVUTAT: single chain PvuII endonuclease (aa 1-157, GSGG linker, aa 2-157) fused to HIV Tat peptide and six histidine tag; SEQ ID NO:2 (protein, listed as Proteus vulgaris)
chain: MSHPDLNKLLELWPHIQEYQDLALKHGINDIFQDNGGKLLQVLLITGLTVLPGREGNDAVDNAGQEYELKSINIDLTKGFSTHHHMNPVIIAKYRQVPWIFAIYRGIAIEAIYRLEPKDLEFYYDKWERKWYSDGHKDINNPKIPVKYVMEHGTKIYGSGGSHPDLNKLLELWPHIQEYQDLALKHGINDIFQDNGGKLLQVLLITGLTVLPGREGNDAVDNAGQEYELKSINIDLTKGFSTHHHMNPVIIAKYRQVPWIFAIYRGIAIEAIYRLEPKDLEFYYDKWERKWYSDGHKDINNPKIPVKYVMEHGTKIYGSYGRKKRRQRRRGGSHHHHHH
[1]
  p53-Ser15 phosphorylation: specific phosphorylation of p53-Ser^15 is obtained
[2]
  histone H2AX Ser139 phosphorylation: rapidly induces histone H2AX Ser^139 phosphorylation
[3]; 10 nM
  apoptotic cells: 18%
[3]; 100 nM
  apoptotic cells: more than 29%
[4]; single addition of SCPVUTAT
  colony formation, cells with mutants in the DNA-PK incl. catalytic subunit: strong reduction in the colony formation assay
[4]; single treatment, all NHEJ mutated cell lines analysed
  colony formation activity: strongly reduce colony formation activity
[5]; 30 hours, SCPVUTAT 100 nM or Taxol 0.2 μg/ml
  cell cycle stop from localisation of Cdc25C and cyclin B: G2 phase stop
[5]; upon treatment with SCPVUTAT (100 nM)
  cell cycle block: reversible block in the phase of the cell cycle that corresponds to late S/G2
[6]; cells negative for p53
  cell cycle response: do not exhibit arrest characteristics of the cell cycle
[6]; cells positive for p53
  cell cycle response: cell cycle arrest behaviour in G1 and G2 with low S-phase values
[7]
  p53-Ser15 phosphorylation: specific phosphorylation of p53-Ser^15 is obtained
[8]; 1-200 nM SCPVUTAT, controls 200 nM, 10 min incubation, immunoblot with PvuII antibody
  import / enrichment in the cells: enriched in the cells and in particular in the nucleus
[8]; protein added to culture medium (DMEM, 10% FCS), immunoblot after 10 min, immunofluorescence after 30 min
  uptake, share of the cells analysed: ~100%
[9]
  induction of apoptosis: significant amount of apoptosis was induced
